Read-outs that look alike come from different tables or passages of the source. Blank lines part the entries; values can stand above or below the substance they belong to.
Legend:
[1] = biological target: CRF receptors on rat anterior pituitary cells (rat)
[2] = biological target: CRF receptors on rat anterior pituitary cells (rat); remark: listed apart in the source
[3] = biological target: CRF receptors on rat anterior pituitary cells (rat); remark: listed apart in the source

- in vitro biopotency: inhibition of ACTH secretion (times the Standard) [1]: 3.38
Substance: (cyclo 29-32) D-Phe^12, Nle^21,38, Glu^29, Lys^32 -r/hCRF(12-41) (peptide)

- in vitro biopotency: inhibition of ACTH secretion (times the Standard) [2]: 3.12
Substance: (cyclo 28-31) D-Phe^12, Nle^21,38, Glu^28, Lys^31 !-r/hCRF(12-41) (peptide)

- in vitro biopotency: inhibition of ACTH secretion (times the Standard) [3]: 4.91
Substance: (cyclo 28-32) D-Phe^12, Nle^21,38, Glu^28, D-Ala^31, Lys^32 !-r/hCRF(12-41) (peptide)
